Measured values: US20200377555A1 (Janssen / Centocor, published 2020)

Columns and labels:
UFV160656 [1] = target: T1, UFV160656 (influenza A H1N1 A/California/07/09)
UFV160664 [2] = target: T2, UFV160664 (influenza A H1N1 A/California/07/09)
UFV160665 [3] = target: T3, UFV160665 (influenza A H1N1 A/California/07/09)
UFV160655 [4] = target: T4, UFV160655 (influenza A H1N1 A/Brisbane/59/07)
UFV5369 = UFV5369 (influenza A H1N1 A/California/07/09)
UFV160656 [5] = target: T1, UFV160656; assay: ELISA, polypeptide coated, antibody titrated; average of 3 independent assays
UFV160664 [6] = target: T2, UFV160664; assay: as above
UFV160665 [7] = target: T3, UFV160665; assay: as above
UFV160655 [8] = target: T4, UFV160655; assay: as above

B1: CR6261 (antibody, V domains shown)
VH: EVQLVESGAEVKKPGSSVKVSCKASGGPFRSYAISWVRQAPGQGPEWMGGIIPIFGTTKYAPKFQGRVTITADDFAGTVYMELSSLRSEDTAMYYCAKHMGYQVRETMDVWGKGTTVTVSS
VL: QSVLTQPPSVSAAPGQKVTISCSGSSSNIGNDYVSWYQQLPGTAPKLLIYDNNKRPSGIPDRFSGSKSGTSATLGITGLQTGDEANYYCATWDRRPTAYVVFGGGTKLTVLG
- Kd (UFV160656 [1]): 0.6 nM
- Kd (UFV160664 [2]): 0.57 nM
- Kd (UFV160665 [3]): 0.56 nM
- Kd (UFV160655 [4]): 0.55 nM
- Kd (UFV5369): 0.97 nM
- EC50 (UFV160656 [5]): 0.432 nM
- EC50 (UFV160664 [6]): 0.395 nM
- EC50 (UFV160665 [7]): 0.425 nM
- EC50 (UFV160655 [8]): 0.396 nM
